Measurements: US20240417457A1

Target: FRα covalently bound to a CM5 sensor chip (UniProt P15328)
Test: SPR (Biacore T200), FRα amine-coupled to a CM5 chip, 180 sec association then dissociation

Sequence of UniProt P15328 (P15328 25-234 limits assumed): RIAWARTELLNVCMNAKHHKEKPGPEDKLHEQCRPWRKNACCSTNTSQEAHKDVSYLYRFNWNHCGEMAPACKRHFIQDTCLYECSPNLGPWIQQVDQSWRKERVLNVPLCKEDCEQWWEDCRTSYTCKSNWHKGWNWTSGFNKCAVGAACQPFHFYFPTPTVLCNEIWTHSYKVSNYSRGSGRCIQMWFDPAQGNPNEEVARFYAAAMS

B1: Antibody I (ScFv, SEQ. ID. NOs: 9-10) (scFv, part only; not given: linker, domain order, His tag, V domains shown, not shown: another chain or arm of the molecule; small tags and cut ends)
VH: QVQLVQSGSELKKPGASVKVSCKASDYIFTNYDITWVRQAPGQGLEWMGEIDPRSGKSYYNEKFKGKSTLTADKSVSTAYLQISSLKAEDTAVYFCATMYYYGSSPPMDYWGQGTTVTVS
VL: DIQMTQSPSSLSASVGDRVTITCRASQDINNFLNWYQQKPGKAPKLLIYYTSRLHSGVPSRFSGSGSGTDYTFTISSLQPEDIATYFCQQSSTIPRTFGQGTKLEIK
B1 gave a binding at time 300 sec as percent of the plateau of 75%.
